Measurements from publication PMC2577339 (Nucleic Acids Research, 2008).

Target: the molecule itself
Assay: glycerol gradient sedimentation + SEC

B1: Topoisomerase IIα (enzyme)
chain: MEVSPLQPVNENMQVNKIKKNEDAKKRLSVERIYQKKTQLEHILLRPDTYIGSVELVTQQMWVYDEDVGINYREVTFVPGLYKIFDEILVNAADNKQRDPKMSCIRVTIDPENNLISIWNNGKGIPVVEHKVEKMYVPALIFGQLLTSSNYDDDEKKVTGGRNGYGAKLCNIFSTKFTVETASREYKKMFKQTWMDNMGRAGEMELKPFNGEDYTCITFQPDLSKFKMQSLDKDIVALMVRRAYDIAGSTKDVKVFLNGNKLPVKGFRSYVDMYLKDKLDETGNSLKVIHEQVNHRWEVCLTMSEKGFQQISFVNSIATSKGGRHVDYVADQIVTKLVDVVKKKNKGGVAVKAHQVKNHMWIFVNALIENPTFDSQTKENMTLQPKSFGSTCQLSEKFIKAAIGCGIVESILNWVKFKAQVQLNKKCSAVKHNRIKGIPKLDDANDAGGRNSTECTLILTEGDSAKTLAVSGLGVVGRDKYGVFPLRGKILNVREASHKQIMENAEINNIIKIVGLQYKKNYEDEDSLKTLRYGKIMIMTDQDQDGSHIKGLLINFIHHNWPSLLRHRFLEEFITPIVKVSKNKQEMAFYSLPEFEEWKSSTPNHKKWKVKYYKGLGTSTSKEAKEYFADMKRHRIQFKYSGPEDDAAISLAFSKKQIDDRKEWLTNFMEDRRQRKLLGLPEDYLYGQTTTYLTYNDFINKELILFSNSDNERSIPSMVDGLKPGQRKVLFTCFKRNDKREVKVAQLAGSVAEMSSYHHGEMSLMMTIINLAQNFVGSNNLNLLQPIGQFGTRLHGGKDSASPRYIFTMLSSLARLLFPPKDDHTLKFLYDDNQRVEPEWYIPIIPMVLINGAEGIGTGWSCKIPNFDVREIVNNIRRLMDGEEPLPMLPSYKNFKGTIEELAPNQYVISGEVAILNSTTIEISELPVRTWTQTYKEQVLEPMLNGTEKTPPLITDYREYHTDTTVKFVVKMTEEKLAEAERVGLHKVFKLQTSLTCNSMVLFDHVGCLKKYDTVLDILRDFFELRLKYYGLRKEWLLGMLGAESAKLNNQARFILEKIDGKIIIENKPKKELIKVLIQRGYDSDPVKAWKEAQQKVPDEEENEESDNEKETEKSDSVTDSGPTFNYLLDMPLWYLTKEKKDELCRLRNEKEQELDTLKRKSPSDLWKEDLATFIEELEAVEAKEKQDEQVGLPGKGGKAKGKKTQMAEVLPSPRGQRVIPRITIEMKAEAEKKNKKKIKNENTEGSPQEDGVELEGLKQRLEKKQKREPGTKTKKQTTLAFKPIKKGKKRNPWSDSESDRSSDESNFDVPPRETEPRRAATKTKFTMDLDSDEDFSDFDEKTDDEDFVPSDASPPKTKTSPKLSNKELKPQKSVVSDLEADDVKGSVPLSSSPPATHFPDETEITNPVPKKNVTVKKTAAKSQSSTSTTGAKKRAAPKGTKRDPALNSGVSQKPDPAKTKNRRKRKPSTSDDSDSNFEKIVSKAVTSKKSKGESDDFHMDFDSAVAPRAKSVRAKKPIKYLEESDEDDLF
stoichiometry N: 2
